The target in experiment [1] is T1, rat liver membranes (glucagon receptor) (Rattus norvegicus, UniProt P30082).
T1 construct: Two batches of liver membranes were each prepared from approximately 80 gm of liver; from tissue; host or cells: rat liver membranes
The experiment is described as follows: Competition binding / Scatchard analysis with ^125 I-glucagon on rat liver membranes. The note with it: 30 minutes at 30° C., read-out: apparent Kd. Here is the method: Membranes from the pLJ4 BHK transfectants were compared with rat liver membrane preparations for the ability to bind ^125 I-glucagon. Membranes were prepared essentially described by Rodbell et al. (J. Biol Chem. 246:1861-1871, 1971, which is incorporated by reference herein in its entirety). Two batches of liver membranes were each prepared from approximately 80 gm of liver from 12 to 16 decapitated young female rats. The livers were removed quickly and placed into an iced beaker. The livers were separated into ten-gram portions. The portions were minced with scissors, and connective tissue was removed during the mincing procedure. The portions were separately homogenized in a Dounce homogenizer. […] The concentration of the solution was adjusted to 44.0%+/-0.1% using 69% sucrose or water as measured by a refractometer (Bausch & Lomb, Rochester, N.Y.). […]
The supernatant was carefully decanted and discarded. […] The absorbance was read in 1 cm cuvettes to determine protein concentration. Protein concentration was determined using the formula: [formula] […]
To each tube 100 μl of 2× binding buffer; 20 μl of ^125 I-glucagon (Amersham); 20 μl of 1 mM NaHCO3; 20 μl 10 mM HOAc, 0.5% BSA (Novo Nordisk N/A, Bagsvaerd, Denmark); and 40 μl of distilled water were added. […] The supernatants from each sample were aspirated, and the pellets were counted.

The target of experiment [2] is T2, cloned receptor (rat glucagon receptor, pLJ4) (Rattus norvegicus, UniProt P30082).
T2 construct: pLJ4 contained an approximately 2 kb insert encoding a 485 amino acid protein; expressed in transfected cells; host or cells: BHK570
T2 sequence (P30082 27-485): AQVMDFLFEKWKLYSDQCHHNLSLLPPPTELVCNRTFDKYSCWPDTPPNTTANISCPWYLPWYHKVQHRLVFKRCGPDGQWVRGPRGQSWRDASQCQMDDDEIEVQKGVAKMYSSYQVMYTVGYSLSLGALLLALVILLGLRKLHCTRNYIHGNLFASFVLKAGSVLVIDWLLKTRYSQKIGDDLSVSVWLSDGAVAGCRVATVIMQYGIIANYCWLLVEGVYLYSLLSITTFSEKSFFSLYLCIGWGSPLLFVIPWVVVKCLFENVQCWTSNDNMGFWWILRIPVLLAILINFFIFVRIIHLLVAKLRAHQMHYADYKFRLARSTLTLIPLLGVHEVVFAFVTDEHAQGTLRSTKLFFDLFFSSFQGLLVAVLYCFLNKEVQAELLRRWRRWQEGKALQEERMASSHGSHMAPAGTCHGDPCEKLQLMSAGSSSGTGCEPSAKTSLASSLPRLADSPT
The experiment is described as follows: Competition binding / Scatchard analysis with ^125 I-glucagon on membranes of pLJ4 BHK transfectants. The protocol: Membranes from the pLJ4 BHK transfectants were compared with rat liver membrane preparations for the ability to bind ^125 I-glucagon. Membranes were prepared essentially described by Rodbell et al. (J. Biol Chem. 246:1861-1871, 1971, which is incorporated by reference herein in its entirety). Two batches of liver membranes were each prepared from approximately 80 gm of liver from 12 to 16 decapitated young female rats. The livers were removed quickly and placed into an iced beaker. The livers were separated into ten-gram portions. The portions were minced with scissors, and connective tissue was removed during the mincing procedure. The portions were separately homogenized in a Dounce homogenizer. To each portion, 25 ml of Medium (Table 2) was added to the minced tissue in the homogenizer, and the tissue was homogenized in an ice bucket with eight vigorous strokes of the loose pestle. After homogenization, the homogenates were pooled into 450 ml of cold Medium (Table 2). The pooled homogenates were stirred for 3 minutes and filtered through two layers of cheesecloth followed by filtering through four layers of cheesecloth. The homogenates were then centrifuged for 30 minutes at 1500×g at 4° C. The supernatants were discarded, and the pellets were pooled into a clean Dounce homogenizer. The pellets were resuspended with three gentle strokes of the loose pestle. The resuspended pellets were decanted into a 250 ml graduate containing 62 ml of 69% Sucrose Solution (Table 2). Distilled water was added to a final volume of 110 ml, and the mixture was thoroughly mixed and kept cold. The concentration of the solution was adjusted to 44.0%+/-0.1% using 69% sucrose or water as measured by a refractometer (Bausch & Lomb, Rochester, N.Y.). […]
To each tube 100 μl of 2× binding buffer; 20 μl of ^125 I-glucagon (Amersham); 20 μl of 1 mM NaHCO3; 20 μl 10 mM HOAc, 0.5% BSA (Novo Nordisk N/A, Bagsvaerd, Denmark); and 40 μl of distilled water were added. […] The supernatants from each sample were aspirated, and the pellets were counted. […]

T1 sequence (P30082 27-485): as above

Turning to “glucagon: 29 amino acid hormone produced by the alpha cells of pancreatic islets; human glucagon (Sigma)”, the Kd in experiment [1] amounted to 0.049 µM; in experiment [2] (Scatchard analysis, cloned receptor, BHK transfectant membranes, 30 minutes at 30° C., read-out: apparent Kd) it was 0.05 µM. Also, the “ability to compete for ^125 I-glucagon binding” value in experiment [2] (micromolar amounts (Table 7: 1 μM glucagon and des-His^1 [Glu^9]glucagon amide)) is given as “able to compete”.
